# Test results from PMC8589989.
# T1: His-MBP-ZNF384 (human, UniProt Q8TF68-2 1-516)
# T1 sequence: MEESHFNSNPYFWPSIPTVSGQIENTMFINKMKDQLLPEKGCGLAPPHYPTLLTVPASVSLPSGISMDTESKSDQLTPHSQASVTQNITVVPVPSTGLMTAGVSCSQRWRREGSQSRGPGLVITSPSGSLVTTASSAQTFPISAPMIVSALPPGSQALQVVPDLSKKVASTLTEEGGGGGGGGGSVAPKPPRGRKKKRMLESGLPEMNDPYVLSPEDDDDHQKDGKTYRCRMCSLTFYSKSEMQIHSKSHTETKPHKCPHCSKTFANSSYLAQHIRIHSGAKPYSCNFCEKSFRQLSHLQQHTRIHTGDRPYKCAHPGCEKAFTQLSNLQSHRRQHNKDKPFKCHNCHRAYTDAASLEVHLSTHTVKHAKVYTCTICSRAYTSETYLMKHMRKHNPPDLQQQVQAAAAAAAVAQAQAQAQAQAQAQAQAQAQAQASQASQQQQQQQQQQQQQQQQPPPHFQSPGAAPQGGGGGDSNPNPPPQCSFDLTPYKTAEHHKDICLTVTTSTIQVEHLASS
# B1: ssDNA T-strand (ssDNA(T)) (ssDNA)
# DNA: GCGATCATGACGTAGACGATAGCGTTCTTTTTTTTTCTTTTTCT
# B2: 3' overhang DNA (dsDNA)
# DNA 1: GCGATCATGACGTAGACGATAGCGTTCTTTTTTTTTCTTTTTCT
# DNA 2: CGCTATCGTCTACGTCATGATCGC
# B3: RNA U-strand (ssRNA)
# RNA: GCGAUCAUGACGUAGACGAUAGCGUUCUUUUUUUUUCUUUUUCU
# B4: 5' overhang DNA (dsDNA)
# DNA 1: TTCTTTTTTTTTCTTTTTCTGCGATCATGACGTAGACGATAGCG
# DNA 2: CGCTATCGTCTACGTCATGATCGC
# What was measured:
# His-MBP-ZNF384 [1] = target: T1, His-MBP-ZNF384; test: BLI; 400 nM protein; Pull-down: 10 mM Tris pH 7.5, 150 mM KCl, 5 mM MgCl2, 0.25% Tween-20, 3.5 mM DTT, 5% glycerol, 0.1% BSA, 4 C; BLI: 10 mM Tris pH 7.5, 150 mM KCl, 5 mM MgCl2, 0.05% Tween-20, 0.1% BSA, 1 mM DTT, 298 K; settings: protein: recombinant; tags: His6-MBP; label: 5' biotin; single strand
# His-Ku70/Ku80 = His-Ku70/Ku80 (UniProt P12956;P13010 1-609;1-732); test: pull-down; 100 fmol Ku, without ZNF384; Pull-down: 10 mM Tris pH 7.5, 150 mM KCl, 5 mM MgCl2, 0.25% Tween-20, 3.5 mM DTT, 5% glycerol, 0.1% BSA, 4 C; BLI: 10 mM Tris pH 7.5, 150 mM KCl, 5 mM MgCl2, 0.05% Tween-20, 0.1% BSA, 1 mM DTT, 298 K; settings: protein: recombinant; tags: His; copies: 1;1; label: 5' biotin on strand 1; 3' overhang 20 nt (strand 1, T-rich), 24 bp duplex
# [2] = target: His-Ku70/Ku80;His-MBP-ZNF384 (human?;human, UniProt P12956;P13010;Q8TF68-2 1-609;1-732;1-516, |); test: pull-down; Ku binding enhanced by increasing ZNF384; Pull-down: 10 mM Tris pH 7.5, 150 mM KCl, 5 mM MgCl2, 0.25% Tween-20, 3.5 mM DTT, 5% glycerol, 0.1% BSA, 4 C; BLI: 10 mM Tris pH 7.5, 150 mM KCl, 5 mM MgCl2, 0.05% Tween-20, 0.1% BSA, 1 mM DTT, 298 K; settings: protein: recombinant;recombinant; tags: His;His6-MBP; copies: 1;1;1; label: 5' biotin on strand 1; 3' overhang 20 nt (strand 1, T-rich), 24 bp duplex
# His-MBP-ZNF384 [3] = target: T1, His-MBP-ZNF384; test: BLI; 400 nM protein; seemingly lower affinity than ssDNA; Pull-down: 10 mM Tris pH 7.5, 150 mM KCl, 5 mM MgCl2, 0.25% Tween-20, 3.5 mM DTT, 5% glycerol, 0.1% BSA, 4 C; BLI: 10 mM Tris pH 7.5, 150 mM KCl, 5 mM MgCl2, 0.05% Tween-20, 0.1% BSA, 1 mM DTT, 298 K; settings: protein: recombinant, tags: His6-MBP, 24 bp duplex
# His-MBP-ZNF384 [4] = target: T1, His-MBP-ZNF384; test: pull-down; did not show RNA binding; Pull-down: 10 mM Tris pH 7.5, 150 mM KCl, 5 mM MgCl2, 0.25% Tween-20, 3.5 mM DTT, 5% glycerol, 0.1% BSA, 4 C; BLI: 10 mM Tris pH 7.5, 150 mM KCl, 5 mM MgCl2, 0.05% Tween-20, 0.1% BSA, 1 mM DTT, 298 K; settings: protein: recombinant; tags: His6-MBP; label: 5' biotin; single strand
# His-Ku70/Ku80, sequence (P12956 whole entry, chain 1 of 2): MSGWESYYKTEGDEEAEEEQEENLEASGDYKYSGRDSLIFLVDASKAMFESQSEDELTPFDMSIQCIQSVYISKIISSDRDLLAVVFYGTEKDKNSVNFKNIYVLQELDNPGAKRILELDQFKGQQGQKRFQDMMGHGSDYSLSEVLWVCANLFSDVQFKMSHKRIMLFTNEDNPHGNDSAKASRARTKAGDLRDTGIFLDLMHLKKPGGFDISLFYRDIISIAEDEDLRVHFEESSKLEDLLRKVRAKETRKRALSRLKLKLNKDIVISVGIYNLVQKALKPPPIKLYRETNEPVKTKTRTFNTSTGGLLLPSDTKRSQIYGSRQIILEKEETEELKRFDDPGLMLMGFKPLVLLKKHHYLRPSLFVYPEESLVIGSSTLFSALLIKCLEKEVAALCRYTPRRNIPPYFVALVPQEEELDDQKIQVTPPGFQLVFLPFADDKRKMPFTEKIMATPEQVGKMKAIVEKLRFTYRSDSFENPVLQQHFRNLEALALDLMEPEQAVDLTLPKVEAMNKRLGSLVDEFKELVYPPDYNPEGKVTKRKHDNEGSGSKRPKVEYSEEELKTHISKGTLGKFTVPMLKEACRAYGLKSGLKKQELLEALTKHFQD
# His-Ku70/Ku80, sequence (P13010 whole entry, chain 2 of 2): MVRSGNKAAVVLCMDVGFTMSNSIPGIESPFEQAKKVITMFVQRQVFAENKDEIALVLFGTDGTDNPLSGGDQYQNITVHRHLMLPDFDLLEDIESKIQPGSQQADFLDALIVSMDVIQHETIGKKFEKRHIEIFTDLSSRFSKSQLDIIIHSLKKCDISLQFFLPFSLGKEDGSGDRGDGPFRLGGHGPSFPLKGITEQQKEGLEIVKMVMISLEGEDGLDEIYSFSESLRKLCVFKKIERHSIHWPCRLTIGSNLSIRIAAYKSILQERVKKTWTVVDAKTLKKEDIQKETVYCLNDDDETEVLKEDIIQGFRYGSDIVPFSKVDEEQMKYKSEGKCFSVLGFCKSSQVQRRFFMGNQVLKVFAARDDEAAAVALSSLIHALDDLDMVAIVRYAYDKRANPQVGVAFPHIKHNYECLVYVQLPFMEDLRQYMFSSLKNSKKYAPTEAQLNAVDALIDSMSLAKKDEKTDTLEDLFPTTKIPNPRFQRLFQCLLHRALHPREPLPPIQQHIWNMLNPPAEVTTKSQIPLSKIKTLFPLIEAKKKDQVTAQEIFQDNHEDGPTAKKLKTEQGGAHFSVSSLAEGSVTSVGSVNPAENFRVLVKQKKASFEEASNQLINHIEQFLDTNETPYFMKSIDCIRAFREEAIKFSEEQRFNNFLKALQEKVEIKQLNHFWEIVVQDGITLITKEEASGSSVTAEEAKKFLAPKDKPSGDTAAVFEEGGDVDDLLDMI
# His-Ku70/Ku80;His-MBP-ZNF384, sequence (P12956 whole entry, chain 1 of 2): as the sequence (P12956 whole entry, chain 1 of 2) above
# His-Ku70/Ku80;His-MBP-ZNF384, sequence (P13010 whole entry, chain 2 of 2): as the sequence (P13010 whole entry, chain 2 of 2) above
binder,measurement,setting,value
B1,binding result,His-MBP-ZNF384 [1],binds
B2,binding result,His-Ku70/Ku80,binds
same,binding result,[2],binds
same,binding result,"His-MBP-ZNF384 [3]; label: 5' biotin on strand 1, 3' overhang 20 nt (strand 1, T-rich)",binds
B3,binding result,His-MBP-ZNF384 [4],no binding
B4,binding result,"His-MBP-ZNF384 [3]; label: 5' biotin on strand 2, 5' overhang 20 nt (strand 1, T-rich)",binds
